Six substances from PMC6086316 can be followed below.

pKd: −log10 of the molar value.

Experiment [1] deals with human mature interleukin-1β (IL-1β, amino acids 117-269) (human). As to the kind of experiment: time-resolved fluorometric immunoassay (TRFIA); 6 pmol IL-8 or IL-1β coated on wells; C-His-emHofQ 10-740 nM in Delfia Assay Buffer, RT 1 h; Eu-N1 anti-6xHis antibody; one-to-one fit.
In experiment [2] the target is recombinant mature interleukin-8 (IL-8) (human). Described as above.
Experiment [3] concerns the target human mature interleukin-1β (IL-1β, amino acids 117-269) (human). Nature of the experiment: time-resolved fluorometric immunoassay (TRFIA); 60 pmol IL-8 or IL-1β coated on wells; emHofQ wild type and mutants 5 nM-2 μM, 4°C overnight; Eu-N1 anti-6xHis antibody; apparent Kd.
Experiment [4] has as its target recombinant mature interleukin-8 (IL-8) (human). Described as above.
Experiment [5] has as its target human mature interleukin-1β (IL-1β, amino acids 117-269) (human). Nature of the experiment: ELISA; cytokines (6 pmol per well) coated on Maxisorp plates; 490 nM emHofQ with C-terminal 8-His tail in PBS, 4°C overnight; detection with His-Probe-HRP; values compared with BSA control.
Experiment [6] deals with recombinant mature interleukin-8 (IL-8) (human). Described as above.
The target in experiment [7] is human mature interleukin-1β (IL-1β, amino acids 117-269) (human). As to the kind of experiment: thermal shift assay (differential scanning fluorometry); PBS, SYPRO orange; 5 μM emHofQ with 5-200 μM IL-8, or 5 μM IL-1β with 2.5-50 μM emHofQ; heated 20-99°C.
The target in experiment [8] is recombinant emHofQ (without a His tail) (Aggregatibacter actinomycetemcomitans). The description is as above.
The target in experiment [9] is N-His-emHofQ (Aggregatibacter actinomycetemcomitans). As to the kind of experiment: SPR; Biacore X; N-His-emHofQ coupled to Ni-NTA chip (115-199 RU); IL-8 injected at 1-15 000 nM, 30 μl/min; 10 mM HEPES, 150 mM NaCl, 0.005% P-20, pH 7.4; one-site binding model; apparent. (In SPR one partner is held on a chip, and binding of the other changes the refractive index at the surface.)

human mature interleukin-1β (IL-1β, amino acids 117-269) (human), sequence (P01584 117-269): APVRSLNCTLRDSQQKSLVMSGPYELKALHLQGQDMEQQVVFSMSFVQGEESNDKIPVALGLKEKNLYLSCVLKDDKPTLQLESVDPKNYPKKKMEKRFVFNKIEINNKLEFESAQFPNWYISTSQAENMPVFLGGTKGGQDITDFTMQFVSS

Regarding “C-His emHofQ (extramembranous domain of the secretin HofQ, C-terminal His tag) (domain or fragment)”, the pKd in [1] was 6.85; in [2], 7.37; in [3], 7.05; in [4], 7.36. Also, the fold binding over the control (BSA) in experiment [5] was 1.3 fold; in experiment [6] it was 4 fold.

For “emHofQ_L1 (H136A, F137A, K139A) (domain or fragment)”, the negative-log Kd (pKd) in experiment [4] was 6.72.

With “emHofQ_L1L2 (H136A, F137A, K139A, D165A, R166A) (domain or fragment)”, in [4], the pKd is 6.70.

For the substance “emHofQ_L2 (D165A, R166A) (domain or fragment)”, the negative-log Kd (pKd) in [4] was 6.96.

Consider “recombinant emHofQ (without a His tail) (domain or fragment)”, for which, in [7], the Tm of IL-1β with 50 μM emHofQ (60.2°C without) was 55.8 °C.

With “recombinant mature interleukin-8 (IL-8) (natural protein)”, in experiment [8], the Tm of emHofQ with 200 μM IL-8 (45.3°C without) worked out at 51.7 °C. The pKd in experiment [9] was 5.62.

In general, pKd refers to the negative decadic logarithm of the Kd, by convention in mol/L.
